In patent publication US9549967B2, “Regulation of sodium channels by PLUNC proteins” (The University of North Carolina at Chapel Hill, priority 2009, dated 2017):

Target: T1, αR205,231Kβ, γR138K ENaC mutant (Rattus norvegicus, UniProt P37089+P37090+P37091, R138K/R205K/R231K)
T1 construct: expressed in transfected cells; host or cells: Xenopus laevis oocytes
T1 sequence (P37089 1-698 R205K/R231K): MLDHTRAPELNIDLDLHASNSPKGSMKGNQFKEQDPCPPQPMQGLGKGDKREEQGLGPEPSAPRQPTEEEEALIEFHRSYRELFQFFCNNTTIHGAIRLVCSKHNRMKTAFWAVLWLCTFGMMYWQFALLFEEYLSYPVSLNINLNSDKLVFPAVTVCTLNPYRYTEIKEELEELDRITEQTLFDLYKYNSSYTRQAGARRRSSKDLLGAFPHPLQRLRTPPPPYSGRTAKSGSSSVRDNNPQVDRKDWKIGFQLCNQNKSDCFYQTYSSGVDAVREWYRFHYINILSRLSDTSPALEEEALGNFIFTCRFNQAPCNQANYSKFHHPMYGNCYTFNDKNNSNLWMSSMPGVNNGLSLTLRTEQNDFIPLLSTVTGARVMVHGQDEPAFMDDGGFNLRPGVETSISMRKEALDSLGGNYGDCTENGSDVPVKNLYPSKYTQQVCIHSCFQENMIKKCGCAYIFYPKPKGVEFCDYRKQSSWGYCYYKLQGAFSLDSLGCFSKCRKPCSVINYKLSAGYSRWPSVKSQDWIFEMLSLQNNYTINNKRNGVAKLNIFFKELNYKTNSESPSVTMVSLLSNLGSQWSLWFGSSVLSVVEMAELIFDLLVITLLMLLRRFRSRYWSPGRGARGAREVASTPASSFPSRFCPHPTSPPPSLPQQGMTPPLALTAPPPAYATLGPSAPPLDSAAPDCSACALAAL
T1 sequence (P37090 1-638): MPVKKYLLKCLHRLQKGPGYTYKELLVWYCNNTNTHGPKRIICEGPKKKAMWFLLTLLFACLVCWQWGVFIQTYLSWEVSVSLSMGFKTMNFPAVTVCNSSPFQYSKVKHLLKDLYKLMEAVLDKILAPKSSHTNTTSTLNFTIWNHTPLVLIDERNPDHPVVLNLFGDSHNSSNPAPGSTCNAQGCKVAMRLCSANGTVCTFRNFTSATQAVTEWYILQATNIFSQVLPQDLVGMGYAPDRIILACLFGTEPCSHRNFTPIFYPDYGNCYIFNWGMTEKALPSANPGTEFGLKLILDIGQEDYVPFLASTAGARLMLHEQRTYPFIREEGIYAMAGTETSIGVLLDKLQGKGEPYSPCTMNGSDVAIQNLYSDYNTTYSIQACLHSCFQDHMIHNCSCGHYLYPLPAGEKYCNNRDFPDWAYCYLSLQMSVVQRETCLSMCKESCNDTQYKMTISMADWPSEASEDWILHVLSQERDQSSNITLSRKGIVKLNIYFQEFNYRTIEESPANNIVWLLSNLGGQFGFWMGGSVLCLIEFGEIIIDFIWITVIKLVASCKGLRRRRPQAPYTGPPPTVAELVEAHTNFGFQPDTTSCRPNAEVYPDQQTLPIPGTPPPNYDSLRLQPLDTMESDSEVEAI
T1 sequence (P37091 1-650 R138K): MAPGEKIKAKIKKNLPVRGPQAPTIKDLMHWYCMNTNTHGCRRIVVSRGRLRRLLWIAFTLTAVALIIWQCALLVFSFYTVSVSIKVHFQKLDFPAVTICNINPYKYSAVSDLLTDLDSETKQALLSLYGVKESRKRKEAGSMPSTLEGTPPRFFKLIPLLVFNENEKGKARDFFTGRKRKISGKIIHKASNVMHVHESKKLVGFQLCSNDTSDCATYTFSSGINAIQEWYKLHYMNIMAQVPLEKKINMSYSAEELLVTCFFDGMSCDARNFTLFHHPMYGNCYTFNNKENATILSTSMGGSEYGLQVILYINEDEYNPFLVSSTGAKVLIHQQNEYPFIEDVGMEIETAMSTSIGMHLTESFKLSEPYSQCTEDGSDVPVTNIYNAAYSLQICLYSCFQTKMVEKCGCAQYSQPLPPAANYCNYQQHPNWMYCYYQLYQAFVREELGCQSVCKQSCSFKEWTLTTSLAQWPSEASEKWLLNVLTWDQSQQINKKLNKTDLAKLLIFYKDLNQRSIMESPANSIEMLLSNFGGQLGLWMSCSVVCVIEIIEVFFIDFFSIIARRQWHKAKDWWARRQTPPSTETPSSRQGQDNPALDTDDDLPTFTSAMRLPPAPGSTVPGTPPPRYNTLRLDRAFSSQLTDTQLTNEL
Assay: Oocyte current of furin-insensitive ENaC mutant
Type: cell-based
Details: co-expression in oocytes
Description: Oocyte studies. Xenopus laevis oocytes were harvested and injected as described (Donaldson, et al., J. Biol. Chem. 277:8338 (2002)). Defolliculated healthy stage V-VI oocytes were injected with 0.3 ng of cRNA of each ENaC subunit. Injected oocytes were kept in modified Barth's saline (in mM: 88 NaCl, 1 KCl, 2.4 NaHCO3, 0.3 Ca(NO3)2, 0.41 CaCl2, 0.82 MgSO4, and 15 HEPES, adjusted to pH 7.35 with Tris). Oocytes were studied 24 hr after injection using the two electrode voltage clamp technique as previously described (Donaldson, et al., J. Biol. Chem. 277:8338 (2002)). Oocytes were clamped at a holding potential of […]. The change in amiloride-sensitive whole cell current as an indicator of ENaC activity was determined by subtracting the corresponding current value measured in the presence of 10 μM amiloride from that measured before the application of amiloride.

B1: SPLUNC1: human SPLUNC1, 256 amino acid secreted PLUNC protein (SEQ ID NO:1); rSPLUNC1 = V5/6His-tagged protein purified from HEK293 media (protein, listed as Homo sapiens)
chain: MFQTGGLIVFYGLLAQTMAQFGGLPVPLDQTLPLNVNPALPLSPTGLAGSLTNALSNGLLSGGLLGILENLPLLDILKPGGGTSGGLLGGLLGKVTSVIPGLNNIIDIKVTDPQLLELGLVQSPDGHRLYVTIPLGIKLQVNTPLVGASLLRLAVKLDITAEILAVRDKQERIHLVLGDCTHSPGSLQISLLDGLGPLPIQGLLDSLTGILNKVLPELVQGNVCPLVNEVLRGLDITLVHDIVNMLIHGLQFVIKV
modifications: V5/6His tag
notes: rSPLUNC1 = V5/6His-tagged protein purified from HEK293 media
inhibition of furin-insensitive ENaC mutant: inhibited
